# Data as given in patent US20240182556A1 (OPSIDIO, published 2024).
# T1: exon 6 peptide (ASSLRNDSSSSNRKAKNPPGDS), coated on ELISA plate (not fully specified)
# T1 construct: No biotin is mentioned for the ELISA coat; also called a peptide of SCF248
# T1 peptide: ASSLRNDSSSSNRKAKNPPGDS
# Legend:
# [1] = target: human SCF248 (stem cell factor 248 isoform) expressed on mouse SI/SI4 cells (human), P21583; test: cell-based or functional assay
# [2] = target: T1, exon 6 peptide …; test: direct ELISA on coated peptide, IgG4, read at 450 nm
# Method: A direct enzyme-linked immunosorbent assay (ELISA) was performed to evaluate binding of the clones of Example 2 (referred to in all additional examples as “mutants”) to the Exon 6 peptide. The mutants were expressed as full length IgG4 antibodies.
# The plate was incubated at 4° C. overnight. […] Both plates were washed with wash buffer twice. Then, the plates were blocked with blocking buffer for 1 hour at 37° C. The plates were then washed with wash buffer twice. […] The plate was covered and incubated for 1 hour at 37° C. The plates were then washed with wash buffer three times. The secondary antibody was added to the plates. The plates were covered and incubated for 1 hour at 37° C. The plates were then washed with wash buffer three times. 100 μL of detection substrate was added to each well of the plates. The plates were covered and incubated for 10-20 minutes at room temperature. Subsequently, 100 μL of stop solution was added to the plates. Each plate was read at an absorbance of 450 nm.
# Reagents: Coating buffer contained 1.5M NaCl, 0.5M […], and 1.0N NaOH. Wash buffer contained 0.05% Tween-20 in PBS. Blocking buffer contained 2.0% normal goat serum in wash buffer. The dilution buffer was wash buffer and 2% FCS. The secondary antibody was a goat anti-human IgG HRP conjugate, purchased from Millipore (Catalogue Number: AP309P). The secondary antibody was diluted 1:1000. The detection substrate was prepared by dissolving 4 O-phenylenediamine dihydrochloride (OPD) tablets dissolved in 12 mL sterile distilled water. 5 μL of hydrogen peroxide (30% v/v) was added to the detection substrate immediately before adding substrate to the wells. The stop solution contained 0.5 M H₂SO₄.
# Sequence of human SCF248 (stem cell factor 248 isoform) expressed on mouse SI/SI4 cells (human), P21583 (P21583 26-273): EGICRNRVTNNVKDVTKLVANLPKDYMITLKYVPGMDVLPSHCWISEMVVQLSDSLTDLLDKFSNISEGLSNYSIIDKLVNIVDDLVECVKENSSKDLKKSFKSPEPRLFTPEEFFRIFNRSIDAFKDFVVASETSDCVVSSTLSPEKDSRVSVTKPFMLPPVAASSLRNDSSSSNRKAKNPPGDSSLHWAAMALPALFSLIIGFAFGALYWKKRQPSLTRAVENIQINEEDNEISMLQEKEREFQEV
Binder,CCL2 Expression as Percentage of Positive Control [1] [%],TGFβ Expression as Percentage of Positive Control [1] [%],absorbance at 0.1 ng/mL antibody [2] [absorbance],absorbance at 0.5 ng/mL antibody [2] [absorbance],absorbance at 1 ng/mL antibody [2] [absorbance],absorbance at 5 ng/mL antibody [2] [absorbance],absorbance at 100 ng/mL antibody [2] [absorbance],absorbance at 1000 ng/mL antibody [2] [absorbance]
"5H10 VK3/VH1 humanized antibody of Table 1 (antibody, V domains shown) VH: QVQLVQSGAELKKPGSSVKISCKSSGYAFSSYWMNWVKQRPGQGLEWIGQIYPGDGDTHYNGKFKGKATLTADKSTSTAYMELSSLTSEDSAVYFCSSSNWVGSYWGQGTLVTVSS VL: DVVMTQSPLSLPVTLGQPASISCKSSQSLLESDGKTYLNWLQQRPGQSPRRLIYLVSRLDSGVPDRFSGSGSGTDFTLKISRVEAEDVGVYYCWQGTHLPQTFGGGTKVEIK",37,65.5,,,,,,
"A84P mutant expressed as full length IgG4 antibody (antibody, V domains shown, Full length IgG4) VH: QVQLVQSGAELKKPGSSVKISCKSSGYAFSSQWMNWVKQRPGQGLEWIGQIYPEDGDTHMNGKFKGKATLTADKSTSTAYMELSSLTSEDSAVYFCSSSNWVGSYWGQGTLVTVSS VL: DVVMTQSPLSLPVTLGQPASISCKSSQSLLEEDGNTYLNWLQQRPGQSPRRLIYLVDRLDIGVPDRFSGSGSGTDFTLKISRVEAEDVGVYYCWQGTDLPQTFGGGTKVEIK",35.6,65.8,0.131,0.193,0.56,1.48,2.67,3.14
"D44P mutant expressed as full length IgG4 antibody (antibody, V domains shown, Full length IgG4) VH: QVQLVQSGAELKKPGSSVKISCKSSGYAFSSQWMNWVKQRPGQGLEWIGQIYPEDGDIHYNGKFKGKATLTADKSTSTAYMELSSLTSEDSAVYFCSSSNWVGSYWGQGTLVTVSS VL: DVVMTQSPLSLPVTLGQPASISCKSSQSLLEEDGNTYLNWLQQRPGQSPRRLIYLVDRLDSGVPDRFSGSGSGTDFTLKISRVEAEDVGVYYCWQGSHLPQTFGGGTKVEIK",42.2,58.5,0.0895,0.207,0.744,1.98,2.16,2.9
"B104P mutant expressed as full length IgG4 antibody (antibody, V domains shown, Full length IgG4) VH: QVQLVQSGAELKKPGSSVKISCKSSGYAFSSQWMNWVKQRPGQGLEWIGQIYPDDGDTHYNDKFKGKATLTADKSTSTAYMELSSLTSEDSAVYFCSSSNWVGSYWGQGTLVTVSS VL: DVVMTQSPLSLPVTLGQPASISCKSSQSLLEADGNTYLNWLQQRPGQSPRRLIYLVDRLDSGVPDRFSGSGSGTDFTLKISRVEAEDVGVYYCWQGTDLPQTFGGGTKVEIK",31.7,43.9,0.0855,0.174,0.527,1.13,1.83,2.48
"B124P mutant expressed as full length IgG4 antibody (antibody, V domains shown, Full length IgG4) VH: QVQLVQSGAELKKPGSSVKISCKSSGYAFSSNWMNWVKQRPGQGLEWIGQIYPEDGDTHYNDKFKGKATLTADKSTSTAYMELSSLTSEDSAVYFCSSSNWVGSYWGQGTLVTVSS VL: DVVMTQSPLSLPVTLGQPASISCKSSQSLLEQDGNTYLNWLQQRPGQSPRRLIYLVDRLDSGVPDRFSGSGSGTDFTLKISRVEAEDVGVYYCWQGTDLPQTFGGGTKVEIK",55.9,49.6,0.0985,0.183,0.629,1.32,2.4,2.76
"F54P mutant expressed as full length IgG4 antibody (antibody, V domains shown, Full length IgG4) VH: QVQLVQSGAELKKPGSSVKISCKSSGYAFSSQWMNWVKQRPGQGLEWIGQIYPEDGDTHMNGKFKTKATLTADKSTSTAYMELSSLTSEDSAVYFCSSSNWVGSYWGQGTLVTVSS VL: DVVMTQSPLSLPVTLGQPASISCKSSQSLLEEDGNTYLNWLQQRPGQSPRRLIYLVDRLDSGVPDRFSGSGSGTDFTLKISRVEAEDVGVYYCWQGTDLPQTFGGGTKVEIK",55.7,74.6,0.11,0.367,0.446,1.35,1.57,2.42
"A104P mutant expressed as full length IgG4 antibody (antibody, V domains shown, Full length IgG4) VH: QVQLVQSGAELKKPGSSVKISCKSSGYAFSSQWMNWVKQRPGQGLEWIGQIYPEDGDTHYNGKFKGKATLTADKSTSTAYMELSSLTSEDSAVYFCSSSNWVGSYWGQGTLVTVSS VL: DVVMTQSPLSLPVTLGQPASISCKSSQSLLEEDGNTYLNWLQQRPGQSPRRLIYLVDRLDSGVPDRFSGSGSGTDFTLKISRVEAEDVGVYYCWQGTDLPQTFGGGTKVEIK",27.4,46.9,0.092,0.305,1.02,1.57,2.6,2.94
"D14P mutant expressed as full length IgG4 antibody (antibody, V domains shown, Full length IgG4) VH: QVQLVQSGAELKKPGSSVKISCKSSGYAFSSQWMNWVKQRPGQGLEWIGQIYPGDDDTHYNDKFKGKATLTADKSTSTAYMELSSLTSEDSAVYFCSSSNWVGSYWGQGTLVTVSS VL: DVVMTQSPLSLPVTLGQPASISCKSSQSLLESDGNTYLNWLQQRPGQSPRRLIYLVDRLDLGVPDRFSGSGSGTDFTLKISRVEAEDVGVYYCWQGTDLPQTFGGGTKVEIK",46.8,48.8,0.137,0.266,0.861,1.81,2.53,3.15
"A64P mutant expressed as full length IgG4 antibody (antibody, V domains shown, Full length IgG4) VH: QVQLVQSGAELKKPGSSVKISCKSSGYAFSSNWMNWVKQRPGQGLEWIGQIYPEDGDTHYNGKFKGKATLTADKSTSTAYMELSSLTSEDSAVYFCSSSNWVGSYWGQGTLVTVSS VL: DVVMTQSPLSLPVTLGQPASISCKSSQSLLEEDGNTYLNWLQQRPGQSPRRLIYLVNRLDDGVPDRFSGSGSGTDFTLKISRVEAEDVGVYYCWQGTDLPQTFGGGTKVEIK",22.9,47.9,0.122,0.172,0.564,1.41,2.71,3.12
"B114P mutant expressed as full length IgG4 antibody (antibody, V domains shown, Full length IgG4) VH: QVQLVQSGAELKKPGSSVKISCKSSGYAFSSQWMNWVKQRPGQGLEWIGQIYPEDGDTHMNGKFKGKATLTADKSTSTAYMELSSLTSEDSAVYFCSSSNWDGSYWGQGTLVTVSS VL: DVVMTQSPLSLPVTLGQPASISCKSSQSLLEEDGNTYLNWLQQRPGQSPRRLIYLVDRLDSGVPDRFSGSGSGTDFTLKISRVEAEDVGVYYCWQGTDLPQTFGGGTKVEIK",59.1,59.5,0.098,0.127,0.446,1.11,2.43,2.81
